Earlier results, collected in PMC3079273.
Like-named read-outs stand apart in the source and are kept apart here. Blank lines part the entries; values can stand above or below the substance they belong to.

Legend:
[1] = molecular target: nitrate reductase (Arabidopsis thaliana) (UniProt P11035)
[2] = molecular target: nitrate reductase (Arabidopsis thaliana) (UniProt P11035); remark: listed apart in the source
Glu1261 = Glu1261 (UniProt position 1261, SKAVGEPPLFL); experiment: kinetics; settings: free oxidized enzyme reacting with free substrate (xanthine)

Chain of nitrate reductase (Arabidopsis thaliana) (P11035 whole entry): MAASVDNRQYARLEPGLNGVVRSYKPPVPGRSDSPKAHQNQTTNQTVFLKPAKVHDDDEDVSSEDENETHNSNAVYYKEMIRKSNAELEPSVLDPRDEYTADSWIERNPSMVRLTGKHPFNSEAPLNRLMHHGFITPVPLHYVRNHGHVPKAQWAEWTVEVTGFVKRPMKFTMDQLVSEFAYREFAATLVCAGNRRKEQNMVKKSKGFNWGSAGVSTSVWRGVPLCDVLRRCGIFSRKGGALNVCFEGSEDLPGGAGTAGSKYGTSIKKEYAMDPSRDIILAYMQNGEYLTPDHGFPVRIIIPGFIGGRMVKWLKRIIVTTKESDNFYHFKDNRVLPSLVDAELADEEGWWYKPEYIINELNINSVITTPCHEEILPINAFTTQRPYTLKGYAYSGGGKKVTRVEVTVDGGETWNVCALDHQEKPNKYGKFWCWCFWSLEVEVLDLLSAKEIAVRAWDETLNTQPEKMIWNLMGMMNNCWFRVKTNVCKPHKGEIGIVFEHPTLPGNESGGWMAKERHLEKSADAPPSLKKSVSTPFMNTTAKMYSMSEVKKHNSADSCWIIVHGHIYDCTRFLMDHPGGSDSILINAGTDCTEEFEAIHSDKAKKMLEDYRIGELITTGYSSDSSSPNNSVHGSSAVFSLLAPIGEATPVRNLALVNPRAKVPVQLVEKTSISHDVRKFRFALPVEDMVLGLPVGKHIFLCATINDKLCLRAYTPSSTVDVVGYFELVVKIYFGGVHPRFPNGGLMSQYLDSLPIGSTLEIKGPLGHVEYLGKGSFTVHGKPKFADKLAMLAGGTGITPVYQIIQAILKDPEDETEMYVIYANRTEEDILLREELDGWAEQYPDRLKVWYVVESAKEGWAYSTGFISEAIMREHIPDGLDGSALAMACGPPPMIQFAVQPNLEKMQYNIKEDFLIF
Chain of 14-3-3 omega (Q01525 whole entry): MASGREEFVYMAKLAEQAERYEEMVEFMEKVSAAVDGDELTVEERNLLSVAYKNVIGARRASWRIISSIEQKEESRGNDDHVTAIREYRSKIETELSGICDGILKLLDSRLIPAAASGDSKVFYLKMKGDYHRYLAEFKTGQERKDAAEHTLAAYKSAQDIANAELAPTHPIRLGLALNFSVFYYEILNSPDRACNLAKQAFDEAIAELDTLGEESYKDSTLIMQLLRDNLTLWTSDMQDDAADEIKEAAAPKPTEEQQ
Chain of 14-3-3 lambda (P48349 whole entry): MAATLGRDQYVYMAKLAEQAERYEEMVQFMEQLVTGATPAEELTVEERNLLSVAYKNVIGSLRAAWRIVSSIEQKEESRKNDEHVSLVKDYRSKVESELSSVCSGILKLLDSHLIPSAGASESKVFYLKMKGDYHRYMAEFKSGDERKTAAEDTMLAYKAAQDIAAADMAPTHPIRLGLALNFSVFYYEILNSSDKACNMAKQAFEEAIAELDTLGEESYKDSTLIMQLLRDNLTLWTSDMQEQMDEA

Ki [1]: 80 nM
Substance: 14-3-3 lambda (from UniProt P48349)

Ki [2]: 60 nM
Substance: 14-3-3 omega (from UniProt Q01525)

Substance: Xanthine oxidoreductase (xanthine oxidase / xanthine dehydrogenase) (Bos taurus)
pKa (Glu1261): 6.6
